Test [1] concerns the target T1, recombinant full length human tissue factor pathway inhibitor (TFPI) (human, UniProt P10646 29-304).
T1 construct: also called TFPI1; human TFPI
Description: SPR (Biacore), recombinant human TFPI over the mAb. (SPR reads the build-up and loss of mass on a sensor chip optically.)
Description: Binding interaction analysis was obtained by Surface Plasmon Resonance in a Biacore 3000. Capture of the relevant monoclonal antibody at a fixed concentration was obtained with immobilised mouse anti-IgG. Different concentrations of TFPI were tested.
These were followed by a direct binding kinetic procedure on selected mAb constructs, with the monoclonal antibody covalently coupled via free amine groups to the carboxymethylated dextrane membrane (CM5) on the sensor chip surface.

The target of test [2] is T1, recombinant full length human tissue …. Description: SPR (Biacore), recombinant human TFPI.
The target is the same in test [3]. The test can be described thus: SPR (Biacore), recombinant human TFPI. The source holds these as a separate data set.

Experimental findings from US20110318356A1 (Novo Nordisk, published 2011) are described below.

Where a chain is given by its changes, count along the chain named. Numbers in names are those of the source.

B1: mouse/human chimera version of the anti-TFPI4F36 antibody (ChimTFPI4F36) (antibody, IgG4, V domains shown)
VH: EVELVESGGGLVKPGGSLKLSCAASGFTFSNYAMSWVRQTPEKRLEWVATISRSGSYSYFPDSVQGRFTISRDNAKNTLYLQMSSLRSEDTAMYYCTRLGGYDEGDAMDSWGQGTSVTVSS
VL: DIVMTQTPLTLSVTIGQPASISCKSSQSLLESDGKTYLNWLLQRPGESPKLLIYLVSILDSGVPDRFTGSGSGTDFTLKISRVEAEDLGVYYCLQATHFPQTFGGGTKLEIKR
notes: also called Chimeric TFPI4F36; chimeric anti-TFPI4F36
As for B1, in test [1], the Kd – broadly, the free concentration of one partner at which half of the binding sites on the other are occupied at equilibrium, for simple one-to-one binding – was 0.0162 nM and the kon (usually the second-order rate constant of association) was 8.88e+06 M⁻¹ s⁻¹.

B2: HzTFPI4F36 HC-A60P (antibody, human IgG4 S228P, kappa, name in Kabat numbering, V domains shown)
VH: EVQLVESGGGLVKPGGSLRLSCAASGFTFSNYAMSWVRQAPGKGLEWVSTISRSGSYSYYPDSVKGRFTISRDNAKNSLYLQMNSLRAEDTAVYYCARLGGYDEGDAMDSWGQGTTVTVSS
VL: DIVMTQTPLSLSVTPGQPASISCKSSQSLLESDGKTYLNWYLQKPGQSPQLLIYLVSILDSGVPDRFSGSGSGTDFTLKISRVEAEDVGVYYCLQATHFPQTFGGGTKVEIKR
notes: Mutated CDR-grafted heavy chain with wild type CDR-grafted light chain; Kabat numbering
Consider B2, for which the Kd in test [2] was found to be 2.2 nM.

B3: HzTFPI4F36 HC-Y59F (antibody, human IgG4 S228P, kappa, name in Kabat numbering, V domains shown)
VH: B2 VH with Y60F, P61A
VL: B2 VL
notes: as for B2
Turning to B3, the Kd in test [2] is 5.5 nM.

B4: HzTFPI4F36 LC-FR2 (antibody, human IgG4 S228P, kappa, name in Kabat numbering)
heavy: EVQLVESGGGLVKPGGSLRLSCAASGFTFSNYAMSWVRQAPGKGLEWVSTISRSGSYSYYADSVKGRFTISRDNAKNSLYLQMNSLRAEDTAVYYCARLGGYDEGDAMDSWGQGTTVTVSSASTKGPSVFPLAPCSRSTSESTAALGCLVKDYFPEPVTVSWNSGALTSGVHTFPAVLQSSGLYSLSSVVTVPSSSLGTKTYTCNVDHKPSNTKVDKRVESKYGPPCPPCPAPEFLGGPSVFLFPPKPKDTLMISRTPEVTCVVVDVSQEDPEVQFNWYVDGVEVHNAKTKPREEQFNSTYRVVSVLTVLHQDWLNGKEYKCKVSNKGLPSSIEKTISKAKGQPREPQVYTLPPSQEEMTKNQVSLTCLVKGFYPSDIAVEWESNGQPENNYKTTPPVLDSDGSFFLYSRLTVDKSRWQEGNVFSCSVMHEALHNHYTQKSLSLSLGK
light: DIVMTQTPLSLSVTPGQPASISCKSSQSLLESDGKTYLNWLLQRPGESPKLLIYLVSILDSGVPDRFSGSGSGTDFTLKISRVEAEDVGVYYCLQATHFPQTFGGGTKVEIKRTVAAPSVFIFPPSDEQLKSGTASVVCLLNNFYPREAKVQWKVDNALQSGNSQESVTEQDSKDSTYSLSSTLTLSKADYEKHKVYACEVTHQGLSSPVTKSFNRGEC
notes: Mutated CDR-grafted light chain with wild type CDR-grafted heavy chain; Kabat numbering; also called patch mutant in LC FR2
For the molecule B4, the Kd in test [3] worked out at 0.63 nM.

B5: HzTFPI4F36 HC-K64Q (antibody, human IgG4 S228P, kappa, name in Kabat numbering, V domains shown)
VH: B2 VH with P61A, K65Q
VL: B2 VL
notes: as for B2
Turning to B5, the Kd in test [2] turned out to be 2.5 nM.

B6: HzTFPI4F36 HC-KABAT CDR2 (antibody, human IgG4 S228P, kappa, name in Kabat numbering, V domains shown)
VH: B2 VH with Y60F, K65Q
VL: B2 VL
notes: as for B2
For B6, the Kd in test [2] was determined as 0.9 nM.

B7: HzTFPI4F36 HC-G42E, G44R, S49A CDR2 (antibody, human IgG4 S228P, kappa, name in Kabat numbering, V domains shown)
VH: B2 VH with G42E, G44R, S49A, Y60F, K65Q
VL: B2 VL
notes: as for B2
Regarding B7, the Kd in test [2] is over 0.03 nM.

B8: HzTFPI4F36 HC-G44R, A60P, K64Q (antibody, human IgG4 S228P, kappa, name in Kabat numbering, V domains shown)
VH: B2 VH with G44R, K65Q
VL: B2 VL
notes: as for B2
With B8, in test [2], the Kd was found to be 0.03 nM.

B9: HzTFPI4F36 HC-FR2, CDR2 (antibody, human IgG4 S228P, kappa, name in Kabat numbering, V domains shown)
VH: B2 VH with A40T, G42E, G44R, Y60F, K65Q
VL: B2 VL
notes: as for B2
Turning to B9, the Kd in test [2] was over 0.03 nM.

B10: HzTFPI4F36 HC-S49A (antibody, human IgG4 S228P, kappa, name in Kabat numbering, V domains shown)
VH: B2 VH with S49A, P61A
VL: B2 VL
notes: as for B2
Take B10: in test [2], the Kd came to 3 nM.

B11: HzTFPI4F36 LC-S63T (antibody, human IgG4 S228P, kappa, name in Kabat numbering, V domains shown)
VH: B2 VH with P61A
VL: B2 VL with S68T
notes: Mutated CDR-grafted light chain with wild type CDR-grafted heavy chain; human kappa/IgG4(S241P)
Turning to B11, the Kd in test [3] was 7.8 nM.

B12: HzTFPI4F36 LC-P15I, FR2 (antibody, human IgG4 S228P, kappa, name in Kabat numbering)
heavy: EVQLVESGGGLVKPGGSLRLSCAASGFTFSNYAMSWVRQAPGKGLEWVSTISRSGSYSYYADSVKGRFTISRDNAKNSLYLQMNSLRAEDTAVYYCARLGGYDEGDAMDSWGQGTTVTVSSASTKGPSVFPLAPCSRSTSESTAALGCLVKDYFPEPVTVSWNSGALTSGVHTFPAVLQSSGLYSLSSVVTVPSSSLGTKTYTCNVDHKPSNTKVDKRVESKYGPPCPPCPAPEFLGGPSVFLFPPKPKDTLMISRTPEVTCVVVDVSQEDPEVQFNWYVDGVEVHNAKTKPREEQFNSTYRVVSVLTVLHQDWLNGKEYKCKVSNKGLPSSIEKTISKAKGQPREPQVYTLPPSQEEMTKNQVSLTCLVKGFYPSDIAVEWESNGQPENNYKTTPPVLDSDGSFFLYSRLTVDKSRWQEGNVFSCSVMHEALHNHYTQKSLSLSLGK
light: B4 light with P15I
notes: Mutated CDR-grafted light chain with wild type CDR-grafted heavy chain; Kabat numbering
With B12, in test [3], the Kd was determined as 0.64 nM.

B13: HzTFPI4F36 HC-FR2 (antibody, human IgG4 S228P, kappa, name in Kabat numbering, V domains shown)
VH: B2 VH with A40T, G42E, G44R, P61A
VL: B2 VL
notes: Mutated CDR-grafted heavy chain with wild type CDR-grafted light chain; Kabat numbering; also called patch mutant in HC FR2
Consider B13, for which the Kd in test [2] was found to be 0.88 nM.

B14: HzTFPI4F36 HC-A93T (antibody, human IgG4 S228P, kappa, name in Kabat numbering, V domains shown)
VH: B2 VH with P61A, A97T
VL: B2 VL
notes: as for B2
Take B14: in test [2], the Kd was found to be 2.7 nM.

B15: HzTFPI4F36 LC-K39R, Q42E, Q45K (antibody, human IgG4 S228P, kappa, name in Kabat numbering, V domains shown)
VH: B2 VH with P61A
VL: B2 VL with K44R, Q47E, Q50K
notes: as for B12
Consider B15, for which the equilibrium dissociation constant (Kd) in test [3] was over 0.03 nM.

B16: HzTFPI4F36 HC-S77T (antibody, human IgG4 S228P, kappa, name in Kabat numbering, V domains shown)
VH: B2 VH with P61A, S78T
VL: B2 VL
notes: as for B2
For the molecule B16, the Kd in test [2] was 1.5 nM.

B17: HzTFPI4F36 HC-Q3E (antibody, human IgG4 S228P, kappa, name in Kabat numbering)
heavy: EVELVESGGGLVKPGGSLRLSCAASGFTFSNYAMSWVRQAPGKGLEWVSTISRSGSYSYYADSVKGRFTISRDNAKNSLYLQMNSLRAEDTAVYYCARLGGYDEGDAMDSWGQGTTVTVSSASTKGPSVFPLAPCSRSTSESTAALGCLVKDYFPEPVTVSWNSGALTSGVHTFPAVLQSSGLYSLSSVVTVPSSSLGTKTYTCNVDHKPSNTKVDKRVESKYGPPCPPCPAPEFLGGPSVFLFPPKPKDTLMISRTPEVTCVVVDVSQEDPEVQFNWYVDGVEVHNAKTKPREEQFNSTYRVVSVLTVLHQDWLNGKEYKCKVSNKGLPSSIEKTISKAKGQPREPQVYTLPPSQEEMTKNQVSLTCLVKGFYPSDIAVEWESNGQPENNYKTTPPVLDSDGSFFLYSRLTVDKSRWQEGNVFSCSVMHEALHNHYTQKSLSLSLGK
light: B4 light with L41Y, R44K, E47Q, K50Q
notes: Mutated CDR-grafted heavy chain with wild type CDR-grafted light chain; human kappa/IgG4(S241P)
As to B17, in test [2], the Kd was 5.8 nM.

B18: HzTFPI4F36 HC-G44R (antibody, human IgG4 S228P, kappa, name in Kabat numbering, V domains shown)
VH: B2 VH with G44R, P61A
VL: B2 VL
notes: as for B2
As to B18, the Kd in test [2] turned out to be 2.3 nM.

B19: HzTFPI4F36 HC-FR2, S49A (antibody, human IgG4 S228P, kappa, name in Kabat numbering, V domains shown)
VH: B2 VH with A40T, G42E, G44R, S49A, P61A
VL: B2 VL
notes: as for B2
As to B19, the Kd in test [2] was found to be 1.3 nM.

B20: HzTFPI4F36 HC-FR3, S77T (antibody, human IgG4 S228P, kappa, name in Kabat numbering, V domains shown)
VH: B2 VH with P61A, S78T, N84S, A88S, V93M
VL: B2 VL
notes: as for B2
With B20, in test [2], the Kd was 7.7 nM.

B21: HzTFPI4F36 LC-P15I (antibody, human IgG4 S228P, kappa, name in Kabat numbering)
heavy: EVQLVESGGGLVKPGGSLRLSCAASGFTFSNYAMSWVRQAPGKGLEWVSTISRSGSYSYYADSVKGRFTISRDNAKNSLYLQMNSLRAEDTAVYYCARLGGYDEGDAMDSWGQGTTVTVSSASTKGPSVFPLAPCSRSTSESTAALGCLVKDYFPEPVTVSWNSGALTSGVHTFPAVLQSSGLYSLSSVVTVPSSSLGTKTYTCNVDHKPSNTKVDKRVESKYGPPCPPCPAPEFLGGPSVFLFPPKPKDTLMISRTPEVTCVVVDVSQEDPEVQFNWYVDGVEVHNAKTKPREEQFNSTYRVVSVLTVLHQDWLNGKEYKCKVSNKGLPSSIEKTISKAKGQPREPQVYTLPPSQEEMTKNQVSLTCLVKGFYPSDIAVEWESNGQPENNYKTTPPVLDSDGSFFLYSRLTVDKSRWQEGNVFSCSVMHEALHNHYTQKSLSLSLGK
light: B4 light with P15I, L41Y, R44K, E47Q, K50Q
notes: as for B12
Consider B21, for which the Kd in test [3] was determined as 17 nM.

B22: HzTFPI4F36 HC-Y59F, A60P (antibody, human IgG4 S228P, kappa, name in Kabat numbering, V domains shown)
VH: B2 VH with Y60F
VL: B2 VL
notes: as for B2
Turning to B22, in test [2], the Kd is 2.3 nM.

B23: HzTFPI4F36 HC-FR3 (antibody, human IgG4 S228P, kappa, name in Kabat numbering, V domains shown)
VH: B2 VH with P61A, N84S, A88S, V93M
VL: B2 VL
notes: as for B2
As to B23, the Kd in test [2] stood at 5.3 nM.

B24: HzTFPI4F36 LC-Y36L (antibody, human IgG4 S228P, kappa, name in Kabat numbering, V domains shown)
VH: B2 VH with P61A
VL: B2 VL with Y41L
notes: as for B12
Consider B24, for which, in test [3], the Kd was over 0.03 nM.

B25: HzTFPI4F36 HC-FR3, A93T (antibody, human IgG4 S228P, kappa, name in Kabat numbering, V domains shown)
VH: B2 VH with P61A, N84S, A88S, V93M, A97T
VL: B2 VL
notes: as for B2
For the molecule B25, the Kd in test [2] turned out to be 4.1 nM.
